The record followed here is patent publication US20230365675A1 (published 2023).

Common to all, as to test: FACS, mutant CD33-GFP on 293FT cells
A general note: Flow cytometry measures light scatter and fluorescence of single cells or particles in a stream.

For test [1], the target named is Mutant CD33-GFP M16 (4889AII) on 293FT cells (UniProt P20138).
The target of test [2] is Mutant CD33-GFP M18 (353AAL) on 293FT cells (UniProt P20138).
For test [3], the target named is Mutant CD33-GFP M19 (348ATAI) on 293FT cells (UniProt P20138).
The target in test [4] is T1, Mutant CD33-GFP M1 (W22A) on 293FT cells (UniProt P20138 18-364).
T1 construct: whole, on cells; not shown: GFP fused to CD33
T1 sequence (P20138 18-364 W22A): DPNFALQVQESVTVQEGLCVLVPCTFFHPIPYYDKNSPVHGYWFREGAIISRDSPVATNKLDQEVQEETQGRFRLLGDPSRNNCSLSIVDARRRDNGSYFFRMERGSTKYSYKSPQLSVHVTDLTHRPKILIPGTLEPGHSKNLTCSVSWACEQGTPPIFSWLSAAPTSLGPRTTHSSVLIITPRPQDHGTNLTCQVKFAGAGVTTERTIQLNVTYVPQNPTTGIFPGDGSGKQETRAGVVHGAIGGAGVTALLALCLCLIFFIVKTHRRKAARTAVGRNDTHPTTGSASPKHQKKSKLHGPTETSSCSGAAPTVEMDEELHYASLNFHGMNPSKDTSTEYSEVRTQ

Test [5] deals with T2, Mutant CD33-GFP M2 (H45E) on 293FT cells (UniProt P20138 18-364).
T2 construct: whole, on cells; not shown: GFP fused to CD33
T2 sequence (P20138 18-364 H45E): as the sequence (P20138 18-364 W22A) above, with A5W, H28E counted along it

The target in test [6] is T3, Mutant CD33-GFP M3 (N99A) on 293FT cells (UniProt P20138 18-364).
T3 construct: whole, on cells; not shown: GFP fused to CD33
T3 sequence (P20138 18-364 N99A): as the sequence (P20138 18-364 W22A) above, with A5W, N82A counted along it

Test [7] deals with T4, Mutant CD33-GFP M4 (R122D) on 293FT cells (UniProt P20138 18-364).
T4 construct: whole, on cells; not shown: GFP fused to CD33
T4 sequence (P20138 18-364 R122D): as the sequence (P20138 18-364 W22A) above, with A5W, R105D counted along it

In test [8] the target is T5, Mutant CD33-GFP M5 (AEAD), quadruple mutant, on 293FT cells (UniProt P20138 18-364).
T5 construct: whole, on cells; substitutions left empty; not shown: GFP fused to CD33
T5 sequence (P20138 other isoform, or with tags, fused parts or gaps mutant): as the sequence (P20138 18-364 W22A) above, with H28E, N82A, R105D counted along it

Test [9] concerns the target T6, Mutant CD33-GFP M6 (F43N) on 293FT cells (UniProt P20138 18-364).
T6 construct: whole, on cells; not shown: GFP fused to CD33

Test [10] deals with T7, Mutant CD33-GFP M7 (R98D) on 293FT cells (UniProt P20138 18-364).
T7 construct: whole, on cells; not shown: GFP fused to CD33
T7 sequence (P20138 18-364 R98D): as the sequence (P20138 18-364 W22A) above, with A5W, R81D counted along it

Test [11] concerns the target T8, Mutant CD33-GFP M8 (K52A) on 293FT cells (UniProt P20138 18-364).
T8 construct: whole, on cells; not shown: GFP fused to CD33

Test [12] addresses T9, Mutant CD33-GFP M9 (Y49, 50A) on 293FT cells (UniProt P20138 18-364).
T9 construct: whole, on cells; Read as the double mutant Y49A + Y50A; not shown: GFP fused to CD33

In test [13] the target is T10, Mutant CD33-GFP M10 (Y127A) on 293FT cells (UniProt P20138 18-364).
T10 construct: whole, on cells; not shown: GFP fused to CD33
T10 sequence (P20138 18-364 Y127A): as the sequence (P20138 18-364 W22A) above, with A5W, Y110A counted along it

In test [14] the target is T11, Mutant CD33-GFP M11 (L78T) on 293FT cells (UniProt P20138 18-364).
T11 construct: whole, on cells; not shown: GFP fused to CD33
T11 sequence (P20138 18-364 L78T): as the sequence (P20138 18-364 W22A) above, with A5W, L61T counted along it

In test [15] the target is T12, Mutant CD33-GFP M12 (G88S) on 293FT cells (UniProt P20138 18-364).
T12 construct: whole, on cells; not shown: GFP fused to CD33
T12 sequence (P20138 18-364 G88S): as the sequence (P20138 18-364 W22A) above, with A5W, G71S counted along it

The target of test [16] is T13, Mutant CD33-GFP M13 (R91E) on 293FT cells (UniProt P20138 18-364).
T13 construct: whole, on cells; not shown: GFP fused to CD33
T13 sequence (P20138 18-364 R91E): as the sequence (P20138 18-364 W22A) above, with A5W, R74E counted along it

For test [17], the target named is T14, Mutant CD33-GFP M14 (E170R) on 293FT cells (UniProt P20138 18-364).
T14 construct: whole, on cells; not shown: GFP fused to CD33
T14 sequence (P20138 18-364 E170R): as the sequence (P20138 18-364 W22A) above, with A5W, E153R counted along it

Test [18] deals with T15, Mutant CD33-GFP M15 (Q171A) on 293FT cells (UniProt P20138 18-364).
T15 construct: whole, on cells; not shown: GFP fused to CD33
T15 sequence (P20138 18-364 Q171A): as the sequence (P20138 18-364 W22A) above, with A5W, Q154A counted along it

The target in test [19] is T16, Mutant CD33-GFP JS23 (L23N) on 293FT cells (UniProt P20138 18-364).
T16 construct: whole, on cells; not shown: GFP fused to CD33
T16 sequence (P20138 18-364 L23N): as the sequence (P20138 18-364 W22A) above, with A5W, L6N counted along it

The target in test [20] is T17, Mutant CD33-GFP JS24 (Q24E) on 293FT cells (UniProt P20138 18-364).
T17 construct: whole, on cells; not shown: GFP fused to CD33
T17 sequence (P20138 18-364 Q24E): as the sequence (P20138 18-364 W22A) above, with A5W, Q7E counted along it

In test [21] the target is T18, Mutant CD33-GFP JS25 (V25M) on 293FT cells (UniProt P20138 18-364).
T18 construct: whole, on cells; not shown: GFP fused to CD33
T18 sequence (P20138 18-364 V25M): as the sequence (P20138 18-364 W22A) above, with A5W, V8M counted along it

In test [22] the target is T19, Mutant CD33-GFP JS28 (S28L) on 293FT cells (UniProt P20138 18-364).
T19 construct: whole, on cells; not shown: GFP fused to CD33
T19 sequence (P20138 18-364 S28L): as the sequence (P20138 18-364 W22A) above, with A5W, S11L counted along it

T9 sequence (P20138 other isoform, or with tags, fused parts or gaps mutant): as the sequence (P20138 18-364 W22A) above, with A5W, Y32A, Y33A counted along it
T6 sequence (P20138 18-364 F43N): as the sequence (P20138 18-364 W22A) above, with A5W, F26N counted along it
T8 sequence (P20138 18-364 K52A): as the sequence (P20138 18-364 W22A) above, with A5W, K35A counted along it

B1: hu195 (antibody, V domains shown)
VH: QVQLVQSGAEVKKPGSSVKVSCKASGYTFTDYNMHWVRQAPGQGLEWIGYIYPYNGGTGYNCIKFKSKATITADESTNTAYMELSSLRSEDTAVYYCARGRPAMDYWGQGTLVTVSS
VL: DIQMTQSPSSLSASVGDRVTITCRASESVDNYGISFMNWFQQKPGKAPKLLIYAASNQGSGVPSRFSGSGSGTDFTLTISSLQPDDFATYYCQQSKEVPWTFGQGTKVEIK
As for B1, the FACS binding data in [1] was found to be 97.2; in test [2], 99.4; in test [3], 99.7; in test [4], 99.3; in [5], 99.6; in [6] it was 99.5. The FACS binding data in test [7] came to 99.6; in test [8], 0.26; in [9], 99.4; in [10], 98.4; in test [11] it was 99.5; in [12] it was 94.4. Also, the FACS binding data was determined as 92.5 in test [13]; 86.8 in test [14]; 98.3 in [15]; 98.1 in [16]; 98.2 in test [17]; 97.6 in [18]. Moreover, the FACS binding data in test [19] was 99.4; in test [20], 72.5; in test [21], 99.8; in [22], 99.9.
